Source: paper PMC12416549 (2024)

T1: TNFR1 (Homo sapiens, UniProt P19438)
T1 chain: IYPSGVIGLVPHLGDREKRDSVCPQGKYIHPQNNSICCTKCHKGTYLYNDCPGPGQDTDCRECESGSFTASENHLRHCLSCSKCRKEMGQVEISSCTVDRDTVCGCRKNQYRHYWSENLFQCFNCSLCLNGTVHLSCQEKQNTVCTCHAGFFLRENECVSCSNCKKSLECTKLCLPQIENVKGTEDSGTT


Biological target: T1, TNFR1
Test: yeast display SC50

| apparent Kd (screen) [nM] | Binder |
| --- | --- |
| 0.956 | K52H (designed binder) SMEEEVEKAAKEYEKKKKEAIEKHLEKLKAKDKEAAERFLKELEEAAKEYAHDEAKTMSEEEAKRRAKKYKEKVLLSELSEEEQKEIKEAEEKLVRTILKYVEEAAK |
| 1.86 | E89F (designed binder) SMEEEVEKAAKEYEKKKKEAIEKHLEKLKAKDKEAAERFLKELEEAAKEYAKDEAKTMSEEEAKRRAKKYKEKVLLSELSEEEQKEIKFAEEKLVRTILKYVEEAAK |
| 2.73 | A46D (designed binder) SMEEEVEKAAKEYEKKKKEAIEKHLEKLKAKDKEAAERFLKELEEDAKEYAKDEAKTMSEEEAKRRAKKYKEKVLLSELSEEEQKEIKEAEEKLVRTILKYVEEAAK |
| 0.446 | E60L (designed binder) SMEEEVEKAAKEYEKKKKEAIEKHLEKLKAKDKEAAERFLKELEEAAKEYAKDEAKTMSLEEAKRRAKKYKEKVLLSELSEEEQKEIKEAEEKLVRTILKYVEEAAK |
| 0.653 | A35V (designed binder) SMEEEVEKAAKEYEKKKKEAIEKHLEKLKAKDKEVAERFLKELEEAAKEYAKDEAKTMSEEEAKRRAKKYKEKVLLSELSEEEQKEIKEAEEKLVRTILKYVEEAAK |
| 2.48 | S80G (designed binder) SMEEEVEKAAKEYEKKKKEAIEKHLEKLKAKDKEAAERFLKELEEAAKEYAKDEAKTMSEEEAKRRAKKYKEKVLLSELGEEEQKEIKEAEEKLVRTILKYVEEAAK |
| 0.446 | A9Q (designed binder) SMEEEVEKQAKEYEKKKKEAIEKHLEKLKAKDKEAAERFLKELEEAAKEYAKDEAKTMSEEEAKRRAKKYKEKVLLSELSEEEQKEIKEAEEKLVRTILKYVEEAAK |
| 1.69 | L75H (designed binder) SMEEEVEKAAKEYEKKKKEAIEKHLEKLKAKDKEAAERFLKELEEAAKEYAKDEAKTMSEEEAKRRAKKYKEKVHLSELSEEEQKEIKEAEEKLVRTILKYVEEAAK |
| 0.446 | A20R (designed binder) SMEEEVEKAAKEYEKKKKERIEKHLEKLKAKDKEAAERFLKELEEAAKEYAKDEAKTMSEEEAKRRAKKYKEKVLLSELSEEEQKEIKEAEEKLVRTILKYVEEAAK |
| 1.4 | S80D (designed binder) SMEEEVEKAAKEYEKKKKEAIEKHLEKLKAKDKEAAERFLKELEEAAKEYAKDEAKTMSEEEAKRRAKKYKEKVLLSELDEEEQKEIKEAEEKLVRTILKYVEEAAK |
| 9.41 | I87K (designed binder) SMEEEVEKAAKEYEKKKKEAIEKHLEKLKAKDKEAAERFLKELEEAAKEYAKDEAKTMSEEEAKRRAKKYKEKVLLSELSEEEQKEKKEAEEKLVRTILKYVEEAAK |
| 7.07 | S59F (designed binder) SMEEEVEKAAKEYEKKKKEAIEKHLEKLKAKDKEAAERFLKELEEAAKEYAKDEAKTMFEEEAKRRAKKYKEKVLLSELSEEEQKEIKEAEEKLVRTILKYVEEAAK |
| 7.07 | E72R (designed binder) SMEEEVEKAAKEYEKKKKEAIEKHLEKLKAKDKEAAERFLKELEEAAKEYAKDEAKTMSEEEAKRRAKKYKRKVLLSELSEEEQKEIKEAEEKLVRTILKYVEEAAK |
| 2.25 | M58V (designed binder) SMEEEVEKAAKEYEKKKKEAIEKHLEKLKAKDKEAAERFLKELEEAAKEYAKDEAKTVSEEEAKRRAKKYKEKVLLSELSEEEQKEIKEAEEKLVRTILKYVEEAAK |
| 0.49 | A51K (designed binder) SMEEEVEKAAKEYEKKKKEAIEKHLEKLKAKDKEAAERFLKELEEAAKEYKKDEAKTMSEEEAKRRAKKYKEKVLLSELSEEEQKEIKEAEEKLVRTILKYVEEAAK |
| 0.49 | K33F (designed binder) SMEEEVEKAAKEYEKKKKEAIEKHLEKLKAKDFEAAERFLKELEEAAKEYAKDEAKTMSEEEAKRRAKKYKEKVLLSELSEEEQKEIKEAEEKLVRTILKYVEEAAK |
| 10.4 | V95M (designed binder) SMEEEVEKAAKEYEKKKKEAIEKHLEKLKAKDKEAAERFLKELEEAAKEYAKDEAKTMSEEEAKRRAKKYKEKVLLSELSEEEQKEIKEAEEKLMRTILKYVEEAAK |
| 0.49 | V6I (designed binder) SMEEEIEKAAKEYEKKKKEAIEKHLEKLKAKDKEAAERFLKELEEAAKEYAKDEAKTMSEEEAKRRAKKYKEKVLLSELSEEEQKEIKEAEEKLVRTILKYVEEAAK |

| apparent Kd (screen) [nM] | Binder |
| --- | --- |
| 1.69 | K18L (designed binder) SMEEEVEKAAKEYEKKKLEAIEKHLEKLKAKDKEAAERFLKELEEAAKEYAKDEAKTMSEEEAKRRAKKYKEKVLLSELSEEEQKEIKEAEEKLVRTILKYVEEAAK |
| 2.48 | D53F (designed binder) SMEEEVEKAAKEYEKKKKEAIEKHLEKLKAKDKEAAERFLKELEEAAKEYAKFEAKTMSEEEAKRRAKKYKEKVLLSELSEEEQKEIKEAEEKLVRTILKYVEEAAK |
| 2.25 | E89Y (designed binder) SMEEEVEKAAKEYEKKKKEAIEKHLEKLKAKDKEAAERFLKELEEAAKEYAKDEAKTMSEEEAKRRAKKYKEKVLLSELSEEEQKEIKYAEEKLVRTILKYVEEAAK |
| 0.718 | E103T (designed binder) SMEEEVEKAAKEYEKKKKEAIEKHLEKLKAKDKEAAERFLKELEEAAKEYAKDEAKTMSEEEAKRRAKKYKEKVLLSELSEEEQKEIKEAEEKLVRTILKYVTEAAK |
| 0.446 | A9M (designed binder) SMEEEVEKMAKEYEKKKKEAIEKHLEKLKAKDKEAAERFLKELEEAAKEYAKDEAKTMSEEEAKRRAKKYKEKVLLSELSEEEQKEIKEAEEKLVRTILKYVEEAAK |
| 0.718 | K31A (designed binder) SMEEEVEKAAKEYEKKKKEAIEKHLEKLKAADKEAAERFLKELEEAAKEYAKDEAKTMSEEEAKRRAKKYKEKVLLSELSEEEQKEIKEAEEKLVRTILKYVEEAAK |
| 0.593 | K69E (designed binder) SMEEEVEKAAKEYEKKKKEAIEKHLEKLKAKDKEAAERFLKELEEAAKEYAKDEAKTMSEEEAKRRAKEYKEKVLLSELSEEEQKEIKEAEEKLVRTILKYVEEAAK |
| 0.869 | K33Q (designed binder) SMEEEVEKAAKEYEKKKKEAIEKHLEKLKAKDQEAAERFLKELEEAAKEYAKDEAKTMSEEEAKRRAKKYKEKVLLSELSEEEQKEIKEAEEKLVRTILKYVEEAAK |
| 0.49 | E37K (designed binder) SMEEEVEKAAKEYEKKKKEAIEKHLEKLKAKDKEAAKRFLKELEEAAKEYAKDEAKTMSEEEAKRRAKKYKEKVLLSELSEEEQKEIKEAEEKLVRTILKYVEEAAK |
| 0.539 | L28Q (designed binder) SMEEEVEKAAKEYEKKKKEAIEKHLEKQKAKDKEAAERFLKELEEAAKEYAKDEAKTMSEEEAKRRAKKYKEKVLLSELSEEEQKEIKEAEEKLVRTILKYVEEAAK |
| 0.446 | K88T (designed binder) SMEEEVEKAAKEYEKKKKEAIEKHLEKLKAKDKEAAERFLKELEEAAKEYAKDEAKTMSEEEAKRRAKKYKEKVLLSELSEEEQKEITEAEEKLVRTILKYVEEAAK |
| 8.56 | Y70N (designed binder) SMEEEVEKAAKEYEKKKKEAIEKHLEKLKAKDKEAAERFLKELEEAAKEYAKDEAKTMSEEEAKRRAKKNKEKVLLSELSEEEQKEIKEAEEKLVRTILKYVEEAAK |
| 11.4 | L99W (designed binder) SMEEEVEKAAKEYEKKKKEAIEKHLEKLKAKDKEAAERFLKELEEAAKEYAKDEAKTMSEEEAKRRAKKYKEKVLLSELSEEEQKEIKEAEEKLVRTIWKYVEEAAK |
| 0.718 | R96K (designed binder) SMEEEVEKAAKEYEKKKKEAIEKHLEKLKAKDKEAAERFLKELEEAAKEYAKDEAKTMSEEEAKRRAKKYKEKVLLSELSEEEQKEIKEAEEKLVKTILKYVEEAAK |
| 2.48 | E3D (designed binder) SMDEEVEKAAKEYEKKKKEAIEKHLEKLKAKDKEAAERFLKELEEAAKEYAKDEAKTMSEEEAKRRAKKYKEKVLLSELSEEEQKEIKEAEEKLVRTILKYVEEAAK |
| 4.39 | A63H (designed binder) SMEEEVEKAAKEYEKKKKEAIEKHLEKLKAKDKEAAERFLKELEEAAKEYAKDEAKTMSEEEHKRRAKKYKEKVLLSELSEEEQKEIKEAEEKLVRTILKYVEEAAK |
| 1.16 | E81G (designed binder) SMEEEVEKAAKEYEKKKKEAIEKHLEKLKAKDKEAAERFLKELEEAAKEYAKDEAKTMSEEEAKRRAKKYKEKVLLSELSGEEQKEIKEAEEKLVRTILKYVEEAAK |
